Measured values taken from patent US9976167B2, “Group of glycosyltransferases and use thereof” (Shanghai Institutes For Biological Sciences, Chinese …, priority 2012, dated 2018).

Assays:
Format in all cases: biochemical
[1] = Glycosyltransfering reaction with crude enzyme, substrate PPD; conditions: UDP-glucose, 35° C., 12 hrs, TLC
Method: (§1) The lysate supernatant of the recombinant yeasts expressing the empty vector was used as control.
(§2) The reaction was conducted under 35° C. for 12 hrs, then stopped by adding 100 μL of butanol. The product were extracted, dried in vacuum, and dissolved in methanol.
(§3) The reaction products were first detected by thin layer chromatography (TLC).
(§4) The converted products of gGT25 were further identified by HPLC (FIG. 10 and FIG. 11). The retention time of peak 2 was identical to that of the CK standard sample; the retention time of peak 3 was identical to that of PPD. […] Peak 1, also present in the profile of the negative control, indicated its irrelevance to the conversion of PPD. 3 peaks were shown in FIG. 11, the retention time of peak 1 was identical to that of F1 standard sample and peak 3 was identical to that of PPT. […] Peak 2, also present in the profile of the negative control, indicated its irrelevance to the conversion of PPT.
(§5) According to the method as in Example 4, the cell lysate of recombinant yeasts expressing gGT13 and gGT30 were used to catalyze PPD and PPT.
The cell lysis supernatant of the recombinant E. coli was used as crude enzyme to conduct the glycosyltransfering reaction, and the reaction condition was identical to that of Example 4.
The reaction was conducted under 35° C. for 12 hrs. 100 μL of butanol was added to stop the reaction and the products were extracted. Upon vacuum drying, the product was dissolved by methanol. TLC was first used to detect the reaction product.
(§6) The glycosyltransfering reactions of ginsenosides and ginsengenins were catalyzed by using the lysis supernatant of the recombinant yeasts expressing 3GT1, 3GT2, 3GT3 and 3GT4 as crude enzymes. The lysis supernatant of recombinant E. coli expressing empty vectors was used as control. The 100 μL reaction system is shown as Table 3. The reaction was conducted under 35° C. for 12 hrs, then stopped by adding 100 μL of butanol. The product were extracted, dried in vacuum, and dissolved in methanol.
The reaction was conducted under 35° C. for 12 hrs, and then stopped by adding 100 μL of butanol. The product were extracted, dried in vacuum, and dissolved in methanol. The reaction products were first detected by thin layer chromatography (TLC) (FIG. 35).

[2] = Glycosyltransfering reaction with crude enzyme, substrate CK; conditions: 35° C., 12 hrs, TLC
Method: as §5, §6

[3] = Glycosyltransfering reaction with crude enzyme, substrate 25-OH-PPD; conditions: 35° C., 12 hrs, TLC
Method: as §6

[4] = Glycosyltransfering activities on ginsengenins and saponins: glycosylation site and specificity (summary)
Method: More than 100 predicted cDNA sequences of glycosyltransferases were extracted from the published expression profile data of the Panax plant. 60 cDNAs with full length were cloned, expressed, and subjected to the analysis of glycosyltransfering reaction.
as §1, §2, §6
(§7) The lysate supernatant of the recombinant yeast expressing empty vectors was used as control. The reaction was conducted under 35° C. for 12 hrs, and then stopped by adding 100 μL of butanol. The product were extracted, dried in vacuum, and dissolved in methanol.
(§8) The glycosyltransfering reactions of ginsenosides Rh2 and F2 were catalyzed by using the lysate supernatant of the recombinant yeasts expressing 3GT1, 3GT2, 3GT3 and 3GT4 as crude enzymes. The 100 μL reaction system is shown as Table 3. The reaction was conducted under 35° C. for 12 hrs, and then stopped by adding 100 μL of butanol. The product were extracted, dried in vacuum, and dissolved in methanol.

[5] = Glycosyltransfering reaction with crude enzyme, substrate PPT; conditions: crude enzyme: lysate supernatant of recombinant yeast; UDP-glucose, 35° C., 12 hrs; TLC
Method: as §1, §2, §3, §4, §5, §6

[6] = Glycosyltransfering reaction with crude enzyme, substrate DM; conditions: crude enzyme: lysate supernatant of recombinant yeast; UDP-glucose, 35° C., 12 hrs; TLC
Method: as §1, §2, §3, §6

[7] = Glycosyltransfering reaction with crude enzyme, substrate Rh2; conditions: crude enzyme: lysate supernatant of recombinant yeast; 35° C., 12 hrs; TLC
Method: as §1, §2
The reaction products were first detected by thin layer chromatography (TLC). […]
as §7, §8

[8] = Glycosyltransfering reaction with crude enzyme, substrate F2; conditions: crude enzyme: lysate supernatant of recombinant yeast; 35° C., 12 hrs; TLC
Method: as §5, §7, §8

[9] = crude enzyme: lysate supernatant of recombinant E. coli, UDP-glucose
[10] = Table 2, tetracyclic triterpenoid substrates

B1: 3GT4: glycosyltransferase protein with 458 amino acids, SEQ ID NO.: 43 (protein)
chain: MEREMLSKTHIMFIPFPAQGHMSPMMQFAKRLAWKGLRITIVLPAQIRDFMQITNPLINTECISFDFDKDDGMPYSMQAYMGVVKLKVTNKLSDLLEKQRTNGYPVNLLVVDSLYPSRVEMCHQLGVKGAPFFTHSCAVGAIYYNARLGKLKIPPEEGLTSVSLPSIPLLGRDDLPIIRTGTFPDLFEHLGNQFSDLDKADWIFFNTFDKLENEEAKWLSSQWPITSIGPLIPSMYLDKQLPNDKDNGINFYKADVGSCIKWLDAKDPGSVVYASFGSVKHNLGDDYMDEVAWGLLHSKYHFIWVVIESERTKLSSDFLAEAEAEEKGLIVSWCPQLQVLSHKSIGSFMTHCGWNSTVEALSLGVPMVALPQQFDQPANAKYIVDVWQIGVRVPIGEEGVVLRGEVANCIKDVMEGEIGDELRGNALKWKGLAVEAMEKGGSSDKNIDEFISKLVSS
modifications: Panax ginseng; 3GT4
[1]; crude enzyme: lysate supernatant of recombinant E. coli
  substrate that could be catalyzed: PPD: ✓
[2]; crude enzyme of Example 11
  glycosylation of C3-OH of CK (product F2): further glycosylating its C3-OH
[2]; [9]
  substrate that could be catalyzed: CK: ✓
[3]; crude enzyme of Example 11
  glycosylation of C3-OH of 25-OH-PPD (product 3-O-β-(D-glucopyranosyl)-25-OH-PPD): could be glycosylated
[3]; [9]
  substrate that could be catalyzed: 25-OH-PPD: ✓
[4]; [10]
  glycosylation site: C-3: ✓
[4]; comparison of 3GT1, 3GT2, 3GT3 and 3GT4, Table 6
  substrate spectrum / specificity: best specificity

B2: gGT25-5: glycosyltransferase protein with 472 amino acids, SEQ ID NO.: 20 (protein)
chain: MKSELIFVPVPAFGHLVGMVEMAKLFISRHENLSVTVLISKFFIDTGIDNYNKSLLAKPTPRLTIINLPEIDPQKYLLKPRCAIFPSLIENQKTHVRDVMSRMTQSESTRVVGLLADILFVDIFDIADEFNVPTYVYSPAGAGFLGLAFHLQTLNDDKKQDVTEFRNSDTELLVPSFANPVPAEFLPSIFLEKDGRHDVLLSLYWRCREAKGIIVNTFEELEPYAINSLRMDSMIPPIYPVGPILNLNGEGQNSDEAAVILGWLDDQPPSSVVFLCFGSFGSFPENQVKEIAMGLERSGHRFLWSLRPCISEGETTLQLKYSNLELPAGFLDRTSCVGKVIGWAPQMAILAHEAVGGFVSHCGWNSVLESVWYGMPVATWPMYGEQQLNAFEMVKELGLAVEIEVDYRNEYNKSDFIVKADEIETKIKKLMMDGKNSKIRKKVKEMKEKSRVAMSENGSSYTSLAKLFEEIM
modifications: Panax ginseng; gGT25-5
[1]; crude enzyme: lysate supernatant of recombinant yeast
  glycosylation of C20-OH of PPD (product CK): could not glycosylate the C20-OH
[5]
  glycosylation of C6-OH of PPT (product Rg1 or Rh1): can only glycosylate C6-OH
  glycosylation of C20-OH of PPT (product F1): could not glycosylate the C20-OH
[6]
  glycosylation of C20-OH of DM (product 20-O-β-(D-glucopyranosyl)-dammarendiol II): could not glycosylate the C20-OH
[4]; [10]
  glycosylation site: C6: ✓

B3: gGT29: glycosyltransferase protein with 442 amino acids, SEQ ID NO.: 26 (protein)
chain: MDNQKGRISIALLPFLAHGHISPFFELAKQLAKRNCNVFLCSTPINLSSIKDKDSSASIKLVELHLPSSPDLPPHYHTTNGLPSHLMLPLRNAFETAGPTFSEILKTLNPDLLIYDFNPSWAPEIASSHNIPAVYFLTTAAASSSIGLHAFKNPGEKYPFPDFYDNSNITPEPPSADNMKLLHDFIACFERSCDIILIKSFRELEGKYIDLLSTLSDKTLVPVGPLVQDPMGHNEDPKTEQIINWLDKRAESTVVFVCFGSEYFLSNEELEEVAIGLEISTVNFIWAVRLIEGEKKGILPEGFVQRVGDRGLVVEGWAPQARILGHSSTGGFVSHCGWSSIAESMKFGVPVIAMARHLDQPLNGKLAAEVGVGMEVVRDENGKYKREGIAEVIRKVVVEKSGEVIRRKARELSEKMKEKGEQEIDRALEELVQICKKKKDEQ
modifications: Panax ginseng; gGT29
[7]
  extension of C3 of Rh2 by one more glycosyl (product Rg3): could be extended by one more glycosyl
[8]
  extension of C3 of F2 by one more glycosyl (product Rd): could be extended by one more glycosyl
[4]; [10]
  glycosylation site: The first glycosyl at C-3: ✓
